In patent US20250268941A1 (AUTOLUS, published 2025):
Values belong to the molecule of their own block, whether it stands above or below them.

What was measured:
[1] = target: BCMA on the cell surface (SupT1.BCMAhigh, SupT1.BCMAlow, MM.1s, JeKo-1 cells) (human) (UniProt Q02223); experiment: cell-based or functional assay
soluble BCMA ectodomain [2] = target: T1, soluble BCMA ectodomain (human, UniProt Q02223 1-54); experiment: SPR, soluble BCMA ectodomain as analyte
T1 construct: extracellular domain
T1 sequence (looked up): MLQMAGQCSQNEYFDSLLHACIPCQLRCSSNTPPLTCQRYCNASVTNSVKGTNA
Procedure: (§1) FIG. 6—Surface plasmon resonance sensogram of binding kinetics between D8 IgG and BCMA is shown. BCMA starting concentration was 50 nM with serial dilutions to 0.19 nM.
(§2) D8 IgG binding to soluble BCMA ectodomain was also studied using surface plasmon resonance (FIG. 6).

soluble BCMA ectodomain [3] = target: T1, soluble BCMA ectodomain; experiment: SPR, BCMA 50 nM serially diluted to 0.19 nM
Procedure: as §1, §2

BCMA-Avi = target: T2, BCMA-Avi (Homo sapiens, UniProt Q02223, biotinylated at the AviTag (implied by detection with streptavidin-APC); position not given); experiment: flow cytometry of live CD3+ T cells transduced with CAT-41BB-ζ alone, stained with BCMA-AviTag plus streptavidin-APC; the staining concentration is not given [a]
T2 construct: soluble recombinant staining reagent; also called BCMA-AviTag; BCMA-Avi/Strep-APC
T2 sequence (recombinant BCMA with AviTag, looked up): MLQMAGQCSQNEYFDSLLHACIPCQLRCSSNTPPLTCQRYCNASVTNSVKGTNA

Kd (soluble BCMA ectodomain [2]): 0.126 nM
koff (soluble BCMA ectodomain [3]): 0.00433 s⁻¹
B1: D8 IgG (antibody, V domains shown)
VH: EVQLVESGGGLVQPGRSLKLSCAASGFIFSDYNMAWVRQAPKKGLEWVATIIYDGSSTNHGDSVKGRFTISRDNAKSTLYLQMDSLRSEDTATYYCATRPGPFAYWGQGTLVTVS
VL: DVVLTQTPPTLSATIGQSVSISCRSSQSLLHSNGNTYLHWLLQRPGQSPQFLIYLVSGLGSGVPNRFSGSGSGTDFTLKISGVEAEDLGIYYCVHGTHAWTVGGGTKLELK

binding result (BCMA-Avi): no binding
B2: CAT-41BB-ζ CAR (other)
chain: QVQLQQSGPELVKPGASVKISCKASGYAFSSSWMNWVKQRPGKGLEWIGRIYPGDEDTNYSGKFKDKATLTADKSSTTAYMQLSSLTSEDSAVYFCARSLLYGDYLDYWGQGTTLTVSSGGGGSGGGGSGGGGSQIVLTQSPAIMSASPGEKVTMTCSASSSVSYMHWYQQKSGTSPKRWIYDTSKLASGVPDRFSGSGSGTSYFLTINNMEAEDAATYYCQQWNINPLTFGAGTKLELKRSDPTTTPAPRPPTPAPTIASQPLSLRPEACRPAAGGAVHTRGLDFACDIYIWAPLAGTCGVLLLSLVITLYCKRGRKKLLYIFKQPFMRPVQTTQEEDGCSCRFPEEEEGGCELRVKFSRSADAPAYQQGQNQLYNELNLGRREEYDVLDKRRGRDPEMGGKPRRKNPQEGLYNELQKDKMAEAYSEIGMKGERRRGKGHDGLYQGLSTATKDTYDALHMQALPPR
notes: Expressed on primary human T cells; also called CAT19 CAR; CAT19CAR using Campana architecture

The next lines start with the molecule.

Molecule: bb2121 CAR
viable SupT1 BCMAlow targets remaining, 24 h co-culture, E:T 1:8 [1]: 21.1%

Molecule: LCAR-B38M CAR
viable SupT1 BCMAlow targets remaining, 24 h co-culture, E:T 1:8 [1]: 25.5%
